Reference: the Human Domainome abundance scans (Beltran et al. 2025)
± gives the uncertainty stated by the source.

B1: Transcription factor SOX-11, residues 50 to 117; numbered along this chain, P35716 (parent)
chain: KRPMNAFMVWSKIERRKIMEQSPDMHNAEISKRLGKRWKMLKDSEKIPFIREAERLRLKHMADYPDYK

Variants of: B1
Assay: abundance fitness (aPCA) (normalised: wild type 0, dead -1); higher = more abundant; growth selection in yeast, the domain comes from the species named
Conditions: Homo sapiens

**Q.** Which abundance fitness does the source give for K32N here?
**A.** The abundance fitness was -0.185 ± 0.061.

**Q.** With K32S as the variant, how does the abundance fitness read?
**A.** The abundance fitness was -0.253 ± 0.056.

**Q.** For K32Q, which abundance fitness is on record?
**A.** Its abundance fitness is -0.061 ± 0.12.

**Q.** Which abundance fitness does the source give for W38C here?
**A.** The abundance fitness was -0.644 ± 0.081.

**Q.** Which abundance fitness does the source give for W38K here?
**A.** Its abundance fitness is -0.375 ± 0.22.

**Q.** With W38P as the variant, how does the abundance fitness read?
**A.** The abundance fitness was -1 ± 0.17.

**Q.** For W38N, which abundance fitness is on record?
**A.** Its abundance fitness is -0.914 ± 0.11.

**Q.** With W38Q as the variant, how does the abundance fitness read?
**A.** Its abundance fitness is -0.068 ± 0.36.

**Q.** For V9R, which abundance fitness is on record?
**A.** Its abundance fitness is -0.926 ± 0.14.

**Q.** With V9S as the variant, how does the abundance fitness read?
**A.** Its abundance fitness is -0.847 ± 0.079.

**Q.** Which abundance fitness does the source give for V9W here?
**A.** Its abundance fitness is -0.411 ± 0.19.

**Q.** Which abundance fitness does the source give for V9P here?
**A.** Its abundance fitness is -0.891 ± 0.16.

**Q.** With V9C as the variant, how does the abundance fitness read?
**A.** The abundance fitness was -0.448 ± 0.087.

**Q.** For V9D, which abundance fitness is on record?
**A.** Its abundance fitness is -0.671 ± 0.12.

**Q.** Which abundance fitness does the source give for L41G here?
**A.** Its abundance fitness is -0.702 ± 0.078.

**Q.** With L41F as the variant, how does the abundance fitness read?
**A.** Its abundance fitness is -0.791 ± 0.076.

**Q.** Which abundance fitness does the source give for L41D here?
**A.** The abundance fitness was -0.849 ± 0.12.

**Q.** For L41R, which abundance fitness is on record?
**A.** The abundance fitness was -0.762 ± 0.097.

**Q.** Which abundance fitness does the source give for L41S here?
**A.** Its abundance fitness is -0.604 ± 0.061.

**Q.** For L41N, which abundance fitness is on record?
**A.** Its abundance fitness is -0.849 ± 0.11.

**Q.** With L41K as the variant, how does the abundance fitness read?
**A.** The abundance fitness was -0.666 ± 0.23.

**Q.** Which abundance fitness does the source give for R15A here?
**A.** The abundance fitness was -0.217 ± 0.091.

**Q.** For R15K, which abundance fitness is on record?
**A.** Its abundance fitness is -0.151 ± 0.15.

**Q.** With R15V as the variant, how does the abundance fitness read?
**A.** The abundance fitness was -0.397 ± 0.077.

**Q.** For R15Y, which abundance fitness is on record?
**A.** The abundance fitness was -0.081 ± 0.07.

**Q.** Which abundance fitness does the source give for K42I here?
**A.** The abundance fitness was -0.526 ± 0.072.

**Q.** With K42L as the variant, how does the abundance fitness read?
**A.** The abundance fitness was -0.315 ± 0.056.

**Q.** For K42P, which abundance fitness is on record?
**A.** Its abundance fitness is 0.021 ± 0.068.

**Q.** For K42A, which abundance fitness is on record?
**A.** The abundance fitness was -0.058 ± 0.071.

**Q.** Which abundance fitness does the source give for K42N here?
**A.** The abundance fitness was 0.051 ± 0.05.

**Q.** With H60M as the variant, how does the abundance fitness read?
**A.** The abundance fitness was -0.114 ± 0.19.

**Q.** With H60P as the variant, how does the abundance fitness read?
**A.** The abundance fitness was -0.142 ± 0.079.

**Q.** With H60C as the variant, how does the abundance fitness read?
**A.** Its abundance fitness is -0.031 ± 0.06.

**Q.** Which abundance fitness does the source give for H60E here?
**A.** Its abundance fitness is 0.406 ± 0.14.

**Q.** For H60R, which abundance fitness is on record?
**A.** The abundance fitness was -0.227 ± 0.064.

**Q.** With H60L as the variant, how does the abundance fitness read?
**A.** The abundance fitness was -0.273 ± 0.068.

**Q.** With H60G as the variant, how does the abundance fitness read?
**A.** Its abundance fitness is 0.142 ± 0.055.

**Q.** For I50P, which abundance fitness is on record?
**A.** Its abundance fitness is -0.617 ± 0.14.

**Q.** For I50W, which abundance fitness is on record?
**A.** Its abundance fitness is -0.437 ± 0.14.

**Q.** For I50D, which abundance fitness is on record?
**A.** Its abundance fitness is -0.425 ± 0.071.

**Q.** For I50C, which abundance fitness is on record?
**A.** Its abundance fitness is -0.59 ± 0.072.

**Q.** With I50M as the variant, how does the abundance fitness read?
**A.** Its abundance fitness is 0.013 ± 0.14.

**Q.** Which abundance fitness does the source give for I50L here?
**A.** Its abundance fitness is -0.161 ± 0.063.

**Q.** Which abundance fitness does the source give for L34C here?
**A.** The abundance fitness was -0.522 ± 0.072.

**Q.** For L34E, which abundance fitness is on record?
**A.** The abundance fitness was -0.891 ± 0.34.

**Q.** With L34F as the variant, how does the abundance fitness read?
**A.** Its abundance fitness is -0.68 ± 0.066.

**Q.** For L34P, which abundance fitness is on record?
**A.** The abundance fitness was -0.222 ± 0.11.

**Q.** Which abundance fitness does the source give for L34V here?
**A.** Its abundance fitness is -0.531 ± 0.072.

**Q.** For L34A, which abundance fitness is on record?
**A.** The abundance fitness was -0.938 ± 0.13.

**Q.** With A6I as the variant, how does the abundance fitness read?
**A.** The abundance fitness was -0.934 ± 0.12.

**Q.** Which abundance fitness does the source give for A6G here?
**A.** The abundance fitness was -0.03 ± 0.06.

**Q.** Which abundance fitness does the source give for A6H here?
**A.** Its abundance fitness is -0.553 ± 0.088.

**Q.** With A6S as the variant, how does the abundance fitness read?
**A.** Its abundance fitness is -0.531 ± 0.068.

**Q.** With A6P as the variant, how does the abundance fitness read?
**A.** Its abundance fitness is -0.524 ± 0.11.

**Q.** With A6E as the variant, how does the abundance fitness read?
**A.** Its abundance fitness is -0.338 ± 0.24.

**Q.** With A6D as the variant, how does the abundance fitness read?
**A.** The abundance fitness was -0.751 ± 0.12.

**Q.** For G35Q, which abundance fitness is on record?
**A.** The abundance fitness was 0.212 ± 0.15.

**Q.** With G35E as the variant, how does the abundance fitness read?
**A.** The abundance fitness was 0.519 ± 0.1.

**Q.** Which abundance fitness does the source give for G35R here?
**A.** The abundance fitness was 0.142 ± 0.057.

**Q.** With G35D as the variant, how does the abundance fitness read?
**A.** The abundance fitness was 0.25 ± 0.055.

**Q.** Which abundance fitness does the source give for G35V here?
**A.** The abundance fitness was 0.25 ± 0.048.

**Q.** With G35A as the variant, how does the abundance fitness read?
**A.** Its abundance fitness is 0.152 ± 0.06.

**Q.** For G35K, which abundance fitness is on record?
**A.** Its abundance fitness is 0.484 ± 0.12.

**Q.** With W10K as the variant, how does the abundance fitness read?
**A.** Its abundance fitness is -0.627 ± 0.23.

**Q.** Which abundance fitness does the source give for W10I here?
**A.** Its abundance fitness is -0.961 ± 0.099.

**Q.** With W10A as the variant, how does the abundance fitness read?
**A.** Its abundance fitness is -0.543 ± 0.12.

**Q.** Which abundance fitness does the source give for D43L here?
**A.** Its abundance fitness is -0.077 ± 0.052.

**Q.** Which abundance fitness does the source give for D43V here?
**A.** Its abundance fitness is -0.397 ± 0.061.

**Q.** Which abundance fitness does the source give for D43E here?
**A.** Its abundance fitness is -0.127 ± 0.11.

**Q.** With D43S as the variant, how does the abundance fitness read?
**A.** Its abundance fitness is -0.339 ± 0.055.

**Q.** With A62I as the variant, how does the abundance fitness read?
**A.** Its abundance fitness is -0.182 ± 0.046.

**Q.** For A62R, which abundance fitness is on record?
**A.** Its abundance fitness is -0.225 ± 0.053.

**Q.** With A62N as the variant, how does the abundance fitness read?
**A.** Its abundance fitness is 0.111 ± 0.043.

**Q.** Which abundance fitness does the source give for A62Q here?
**A.** The abundance fitness was 0.146 ± 0.096.

**Q.** For A62D, which abundance fitness is on record?
**A.** The abundance fitness was 0.092 ± 0.05.

**Q.** With A62G as the variant, how does the abundance fitness read?
**A.** The abundance fitness was 0.079 ± 0.05.

**Q.** For K39P, which abundance fitness is on record?
**A.** Its abundance fitness is -0.868 ± 0.19.

**Q.** With K39D as the variant, how does the abundance fitness read?
**A.** Its abundance fitness is 0.008 ± 0.061.

**Q.** Which abundance fitness does the source give for M19R here?
**A.** The abundance fitness was -0.24 ± 0.063.

**Q.** Which abundance fitness does the source give for E45L here?
**A.** The abundance fitness was -0.221 ± 0.054.

**Q.** For E45W, which abundance fitness is on record?
**A.** The abundance fitness was -0.447 ± 0.14.

**Q.** For E45T, which abundance fitness is on record?
**A.** The abundance fitness was -0.942 ± 0.21.

**Q.** For E45N, which abundance fitness is on record?
**A.** The abundance fitness was -0.439 ± 0.088.
